T1: rhesus monkey MUC16 protein (ECT_TM RhMuc16) on 293T cells (rhesus monkey)
T1 chain: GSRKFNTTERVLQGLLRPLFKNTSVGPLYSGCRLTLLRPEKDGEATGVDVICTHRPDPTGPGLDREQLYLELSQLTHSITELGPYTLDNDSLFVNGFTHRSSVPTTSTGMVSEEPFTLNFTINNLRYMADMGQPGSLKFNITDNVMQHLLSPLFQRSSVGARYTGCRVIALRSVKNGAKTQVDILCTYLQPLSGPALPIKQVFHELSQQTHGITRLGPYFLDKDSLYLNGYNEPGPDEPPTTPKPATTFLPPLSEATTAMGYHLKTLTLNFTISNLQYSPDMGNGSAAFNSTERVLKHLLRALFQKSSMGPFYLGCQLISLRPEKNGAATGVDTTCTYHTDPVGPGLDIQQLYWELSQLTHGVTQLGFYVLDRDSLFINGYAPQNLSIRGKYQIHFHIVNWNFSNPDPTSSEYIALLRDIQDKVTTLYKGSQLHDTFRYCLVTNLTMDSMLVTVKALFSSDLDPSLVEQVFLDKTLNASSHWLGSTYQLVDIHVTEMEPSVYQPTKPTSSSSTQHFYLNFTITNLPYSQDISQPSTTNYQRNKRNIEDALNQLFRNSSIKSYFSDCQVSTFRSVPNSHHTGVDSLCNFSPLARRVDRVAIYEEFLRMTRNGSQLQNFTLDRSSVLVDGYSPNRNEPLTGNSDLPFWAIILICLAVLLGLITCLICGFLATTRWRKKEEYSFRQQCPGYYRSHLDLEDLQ


Tests used:
[1] = biological target: T2, human CD3 protein endogenously expressed on Jurkat cells (human, UniProt P07766 23-207); assay: flow cytometry, Jurkat cells (endogenous CD3), PE anti-human IgG Fc secondary, MFI; EC50 table under the plot, unit from the axis Conc.(nM)
T2 construct: whole, on cells; The whole CD3 complex is on the cells; also called CD3 on Jurkat cells; CD3 on Jurkat/NFAT-luc cells
T2 sequence (P07766 23-207): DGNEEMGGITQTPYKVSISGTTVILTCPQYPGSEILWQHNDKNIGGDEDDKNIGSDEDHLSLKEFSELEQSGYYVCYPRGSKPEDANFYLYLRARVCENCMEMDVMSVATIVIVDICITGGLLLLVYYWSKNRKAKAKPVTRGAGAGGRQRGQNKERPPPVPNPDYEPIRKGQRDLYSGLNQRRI
Experimental: (§1) (3) Whether the anti-CD3/anti-MUC16 bispecific antibodies in the present invention could bind to the CD3 protein endogenously expressed on Jurkat cells (Cell Bank of Type Culture Collection Committee of the Chinese Academy of Sciences, Cat #SCSP-513) was determined by cell binding experiments. Detection was performed using the flow cytometry described above, with the following differences: the dilution gradient for the test bispecific antibody was: a maximum concentration of 200 nM, starting from a second concentration of 100 nM, 5-fold dilution, 10 points; the bispecific antibodies were added to Jurkat cells, and the cells were incubated at 4° C. for 30 min. The cells were washed twice with PBS, and then fluorescent secondary antibody R-PE-conjugated AffiniPure Goat Anti-Human IgG, Fcγ Fragment Specific was added. The cells were incubated at 4° C. for 30 min. The cells were washed twice with PBS and then resuspended, and finally, fluorescence signals were detected using a BD Accuri C5 (BD Bioscience) flow cytometer.

[2] = biological target: T3, human MUC16 protein endogenously expressed on cells (human, UniProt Q8WXI7 1-14507); assay: flow cytometry, OVCAR3 cells (endogenous human MUC16), PE anti-human IgG Fc secondary, MFI; EC50 table under the plot, unit from the axis Conc.(nM)
T3 construct: whole, on cells; also called MUC16 on OVCAR3 cells; MUC16 in ovarian carcinoma tissue
Experimental: (1) Whether the anti-CD3/anti-MUC16 bispecific antibodies in the present invention could bind to the MUC16 protein endogenously expressed on human ovarian carcinoma cells (OVCAR3) (Cell Bank of Type Culture Collection Committee of the Chinese Academy of Sciences, Cat #TCHu228) was determined by cell binding experiments.
The experiments were performed using flow cytometry. OVCAR3 cells were digested, centrifuged and collected. The cells were resuspended in a PBS solution, and seeded into a 96-well plate (Corning, Cat #3799) at 1×10⁵ cells/well. The 96-well plate was centrifuged and then the supernatant was discarded. 100 μL of the serially diluted test bispecific antibody (at a maximum concentration of 200 nM, 5-fold dilution from 100 nM, 9 concentration points in total) was added to the OVCAR3 cells. The plate was incubated at 4° C. for 30 min and centrifuged (1000 rpm, 5 min), and then the supernatant was discarded. 100 μL of PBS solution was added to each well, and the cells were washed twice. 100 μL of fluorescent secondary antibody R-PE-conjugated AffiniPure Goat Anti-Human IgG, Fcγ Fragment Specific (Jackson ImmunoResearch, Cat #109-116-098) diluted in a ratio of 1:200 was then added. The cells were incubated at 4° C. for 30 min. After the cells were washed twice with the PBS solution, 100 μL of PBS solution was added to each well to resuspend the cells, and finally, fluorescence signals were detected using a BD Accuri C5 (BD Bioscience) flow cytometer according to the manufacturer's instructions. REGN4018 was used as a positive control.

[3] = biological target: T1, rhesus monkey MUC16 protein (ECT_TM …); assay: flow cytometry, 293T/rhesus MUC16 cells as printed on the sheet and in the legend (the example, paragraph 611, speaks of cynomolgus MUC16), PE anti-human IgG Fc secondary, MFI; EC50 table under the plot, unit from the axis Conc.(nM); curve still rising at the top concentration of 100 nM
Experimental: (§2) Referring to the flow cytometry described above, the serially diluted test bispecific antibody (at an initial concentration of 100 nM, 5-fold dilution, 9 points) was added to the cells, and the plate was incubated at 4° C. for 30 min. The cells were washed twice with PBS, and then fluorescent secondary antibody R-PE-conjugated AffiniPure Goat Anti-Human IgG, Fcγ Fragment Specific was added. The cells were incubated at 4° C. for 30 min. The cells were washed twice with PBS and then resuspended, and finally, fluorescence signals were detected using a BD Accuri C5 (BD Bioscience) flow cytometer.

[4] = biological target: T2, human CD3 protein endogenously …; assay: flow cytometry, Jurkat cells (endogenous CD3), PE anti-human IgG Fc secondary, MFI; EC50 table under the plot, unit from the axis Conc.(nM); curve still rising at the top concentration
Experimental: as §1

[5] = biological target: T1, rhesus monkey MUC16 protein (ECT_TM …); assay: flow cytometry, 293T/rhesus MUC16 cells as printed on the sheet and in the legend (the example, paragraph 611, speaks of cynomolgus MUC16), PE anti-human IgG Fc secondary, MFI; EC50 table under the plot, unit from the axis Conc.(nM); curve still rising at the top concentration of 100 nM, the value lies beyond the range shown
Experimental: as §2

Row | EC50 [1] [nM] | EC50 [2] [nM] | EC50 [3] [nM] | EC50 [4] [nM] | EC50 [5] [nM] | Binder
1 | 14 | 2.78 | 48.4 | – | – | anti-CD3/MUC16 bispecific antibody 2MCH7-23L2 (bispecific antibody, human IgG1, kappa, L234A L235A, 2MCH7-KIH-Knob (VH-CH1-VH-CH1-Fc) + 23L2ScFv-Hole + two light chains MCL4 LC) heavy 1: not shown heavy 2: EVQLVESGGGLVQPGGSLKLSCAASGFTFSTYAMNWVRQAPGKGLEWVGRIRSKYNNYATYYADSVKDRFTISRDDSKNTLYLQMNSLKTEDTAVYYCTRHGNFGNSYVSWFAYWGQGTTVTVSSGGGGSGGGGSGGGGSQAVVTQEPSLTVSPGGTVTLTCRSSTGAVTTSNYANWVQQKPGQAPRGLIGGTNKRAPGVPARFSGSLLGGKAALTLSGAQPEDEAEYFCALWYSNLWVFGGGTKLTVLGEPKSSDKTHTCPPCPAPEAAGGPSVFLFPPKPKDTLMISRTPEVTCVVVAVSHEDPEVKFNWYVDGVEVHNAKTKPREEQYNSTYRVVSVLTVLHQDWLNGKEYKCKVSNKALAAPIEKTISKAKGQPREPQVCTLPPSRDELTKNQVSLSCAVKGFYPSDIAVEWESNGQPENNYKTTPPVLDSDGSFFLVSKLTVDKSRWQQGNVFSCSVMHEALHNHYTQKSLSLSPGK light: EIVLTQSPATLSLSPGERATLSCRASSSVIYMSWYQQKPGQAPRLLIYGTSTLASGIPARFSGSGSGTDFTLTISSLEPEDFAVYYCQQWSSNPFTFGQGTKLEIKRTVAAPSVFIFPPSDEQLKSGTASVVCLLNNFYPREAKVQWKVDNALQSGNSQESVTEQDSKDSTYSLSSTLTLSKADYEKHKVYACEVTHQGLSSPVTKSFNRGEC
2 | – | 17.2 | – | 70.7 | 182 | anti-CD3/MUC16 bispecific antibody MCH7-23L2 (bispecific antibody, human IgG1, kappa, L234A L235A, 23L2ScFv-Hole + MCH7-KIH-Knob + one light chain MCL4 LC) heavy 1: EVQLVESGGGLVQPGGSLKLSCAASGFTFSTYAMNWVRQAPGKGLEWVGRIRSKYNNYATYYADSVKDRFTISRDDSKNTLYLQMNSLKTEDTAVYYCTRHGNFGNSYVSWFAYWGQGTTVTVSSGGGGSGGGGSGGGGSQAVVTQEPSLTVSPGGTVTLTCRSSTGAVTTSNYANWVQQKPGQAPRGLIGGTNKRAPGVPARFSGSLLGGKAALTLSGAQPEDEAEYFCALWYSNLWVFGGGTKLTVLGEPKSSDKTHTCPPCPAPEAAGGPSVFLFPPKPKDTLMISRTPEVTCVVVAVSHEDPEVKFNWYVDGVEVHNAKTKPREEQYNSTYRVVSVLTVLHQDWLNGKEYKCKVSNKALAAPIEKTISKAKGQPREPQVCTLPPSRDELTKNQVSLSCAVKGFYPSDIAVEWESNGQPENNYKTTPPVLDSDGSFFLVSKLTVDKSRWQQGNVFSCSVMHEALHNHYTQKSLSLSPGK heavy 2: not shown light: EIVLTQSPATLSLSPGERATLSCRASSSVIYMSWYQQKPGQAPRLLIYGTSTLASGIPARFSGSGSGTDFTLTISSLEPEDFAVYYCQQWSSNPFTFGQGTKLEIKRTVAAPSVFIFPPSDEQLKSGTASVVCLLNNFYPREAKVQWKVDNALQSGNSQESVTEQDSKDSTYSLSSTLTLSKADYEKHKVYACEVTHQGLSSPVTKSFNRGEC
